Results taken from US20040018971A1 (published 2004).
Where no end group is shown, it is not given here. [ ]: non-standard residue; d: D form. Abu = CC[C@H](N)C(=O)O

B1: Her2/neu.218.B3B7K9 (peptide)
peptide: TVBAGGBAK
modifications: B at positions 3 and 7 = alpha-amino butyric acid (in place of cysteine)
notes: synthetic analog peptide; also called TVBAGGBAK
B2: HER2/neu peptide, position 883, 9 amino acids (peptide)
peptide: KVPIKWMAL
notes: Synthetic peptide; also called KVPIKWMAL

Biological target: T1, HLA-A*0301 (human)
T1 construct: Purified HLA molecule, 5 to 500 nM in the assay; also called HLA-A3
Assay: competition with 125I-labelled probe peptide on purified HLA-A*0301, gel filtration; ratio to standard peptide 941.12

Binder	relative binding ratio (IC50 of standard peptide / IC50 of test peptide) [relative binding ratio]
YLEDVRLVHR [HER2/neu peptide, position 835, 10 amino acids]	0.0003
WMALESILR [HER2/neu peptide, position 888, 9 amino acids]	-0.0002
VLVKSPNHVK [HER2/neu peptide, position 851, 10 amino acids]	0.082
VLIAHNQVR [HER2/neu peptide, position 84, 9 amino acids]	0.0033
WMIDSECRPR [HER2/neu peptide, position 959, 10 amino acids]	-0.0002
VTGASPGGLR [HER2/neu peptide, position 129, 10 amino acids]	0.0002
WIPDGENVK [HER2/neu peptide, position 739, 9 amino acids]	0.0002
VLQGLPREY [HER2/neu peptide, position 546, 9 amino acids]	0.0012
WMALESILRR [HER2/neu peptide, position 888, 10 amino acids]	0.0085
VSEFSRMAR [HER2/neu peptide, position 973, 9 amino acids]	-0.0002
YVLIAHNQVR [HER2/neu peptide, position 83, 10 amino acids]	0.0043
YVMAGVGSPY [HER2/neu peptide, position 772, 10 amino acids, listing 1 of 2 here]	0.01
TVPWDQLFR [HER2/neu peptide, position 479, 9 amino acids]	0.0006
VVQGNLELTY [HER2/neu peptide, position 55, 10 amino acids, listing 1 of 2 here]	0.0024
VTAEDGTQR [HER2/neu peptide, position 322, 9 amino acids]	0.0002
VARCPSGVK [HER2/neu peptide, position 597, 9 amino acids]	0.01

Biological target: T2, HLA-A*0101 (human)
T2 construct: also called HLA-A1
Assay: competition with 125I-labelled probe peptide for purified HLA-A*0101, gel filtration

Binder	relative binding ratio
LMTFGAKPY [HER2/neu peptide, position 915, 9 amino acids]	0.0011 ratio (IC50 of standard peptide / IC50 of test peptide)
GSGAFGTVY [HER2/neu peptide, position 727, 9 amino acids]	0.0011 ratio (IC50 of standard peptide / IC50 of test peptide)
CVTACPYNY [HER2/neu peptide, position 295, 9 amino acids]	0.0042 ratio (IC50 of standard peptide / IC50 of test peptide)
ELHCPALVTY [HER2/neu peptide, position 265, 10 amino acids]	0.0015 ratio (IC50 of standard peptide / IC50 of test peptide)
YVMAGVGSPY [HER2/neu peptide, position 772, 10 amino acids, listing 2 of 2 here]	1.1 ratio (IC50 of standard peptide / IC50 of test peptide)
RLLDIDETEY [HER2/neu peptide, position 868, 10 amino acids]	1.3 ratio (IC50 of standard peptide / IC50 of test peptide)
SMPNPEGRY [HER2/neu peptide, position 281, 9 amino acids]	0.0028 ratio (IC50 of standard peptide / IC50 of test peptide)
VVQGNLELTY [HER2/neu peptide, position 55, 10 amino acids, listing 2 of 2 here]	0.018 ratio (IC50 of standard peptide / IC50 of test peptide)
ASCVTACPY (also called Her2/neu.293) [HER2/neu peptide, position 293, 9 amino acids]	0.055 ratio (IC50 of standard peptide / IC50 of test peptide)
PLPSETDGY [HER2/neu peptide, position 1119, 9 amino acids]	0.0017 ratio (IC50 of standard peptide / IC50 of test peptide)
ASPLDSTFY [HER2/neu peptide, position 997, 9 amino acids]	0.029 ratio (IC50 of standard peptide / IC50 of test peptide)
PLTCSPQPEY [HER2/neu peptide, position 1130, 10 amino acids]	0.0072 ratio (IC50 of standard peptide / IC50 of test peptide)
LIQRNPQLCY [HER2/neu peptide, position 154, 10 amino acids]	0.03 ratio (IC50 of standard peptide / IC50 of test peptide)
RVLQGLPREY [HER2/neu peptide, position 545, 10 amino acids]	0.0015 ratio (IC50 of standard peptide / IC50 of test peptide)
FSPAFDNLY [HER2/neu peptide, position 1213, 9 amino acids]	0.043 ratio (IC50 of standard peptide / IC50 of test peptide)
TLEEITGYLY (also called Her2/neu.402) [HER2/neu peptide, position 402, 10 amino acids]	1.1 ratio (IC50 of standard peptide / IC50 of test peptide)
ELMTFGAKPY [HER2/neu peptide, position 914, 10 amino acids]	0.0082 ratio (IC50 of standard peptide / IC50 of test peptide)

Biological target: HLA-A*3301 (human)
Assay: inhibition of 125I probe peptide binding to purified HLA

Binder	IC50 [nM]
IVKGGVLIQK (synthetic analog peptide) [Her2/neu.148.V2K10]	6590
ILKGGVLIQR (synthetic peptide) [Her2/neu.148]	121
IVWKDIFHK (synthetic analog peptide) [Her2/neu.167.V2]	853
ISWLGLRSLR (synthetic peptide) [Her2/neu.450]	223
QLRSLTEILK (synthetic peptide) [Her2/neu.141]	6170

Biological target: HLA-A*3101 (human)
Assay: as above

Binder	IC50 [nM]
IVKGGVLIQR (synthetic analog peptide) [Her2/neu.148.V2]	72
IVKGGVLIQK (synthetic analog peptide) [Her2/neu.148.V2K10]	450
ILKGGVLIQR (synthetic peptide) [Her2/neu.148]	25
IVWKDIFHK (synthetic analog peptide) [Her2/neu.167.V2]	247
ISWLGLRSLR (synthetic peptide) [Her2/neu.450]	6.9
QLRSLTEILK (synthetic peptide) [Her2/neu.141]	667

Biological target: HLA-A*1101 (human)
Assay: as above

Binder	IC50 [nM]
IVKGGVLIQR (synthetic analog peptide) [Her2/neu.148.V2]	7500
IVKGGVLIQK (synthetic analog peptide) [Her2/neu.148.V2K10]	102
IVWKDIFHK (synthetic analog peptide) [Her2/neu.167.V2]	40
IVWLGLRSLK (synthetic analog peptide) [Her2/neu.450.V2K10]	128
B1	29
TVCAGGCAR (synthetic peptide) [Her2/neu.218]	261

Biological target: HLA-A*0301 (human)
Assay: as above

Binder	IC50 [nM]
IVKGGVLIQR (synthetic analog peptide) [Her2/neu.148.V2]	275
IVKGGVLIQK (synthetic analog peptide) [Her2/neu.148.V2K10]	26
ILKGGVLIQR (synthetic peptide) [Her2/neu.148]	275
IVWKDIFHK (synthetic analog peptide) [Her2/neu.167.V2]	23
ISWLGLRSLR (synthetic peptide) [Her2/neu.450]	268
IVWLGLRSLK (synthetic analog peptide) [Her2/neu.450.V2K10]	3.9
B1	24
QLRSLTEILK (synthetic peptide) [Her2/neu.141]	55

Biological target: HLA-A*6801 (human)
Assay: as above

Binder	IC50 [nM]
IVKGGVLIQR (synthetic analog peptide) [Her2/neu.148.V2]	29
IVKGGVLIQK (synthetic analog peptide) [Her2/neu.148.V2K10]	27
ISWLGLRSLR (synthetic peptide) [Her2/neu.450]	73
IVWLGLRSLK (synthetic analog peptide) [Her2/neu.450.V2K10]	12
B1	7.3
TVCAGGCAR (synthetic peptide) [Her2/neu.218]	83

Biological target: HLA-B*0702 (human)
Assay: competition with 125I probe peptide, purified HLA

Binder	IC50 [nM]
CPSGVKPDLSI (analog peptide) [Her2/neu.600.I11]	290

Biological target: HLA-B*5101 (human)
Assay: competition with 125I probe peptide, purified HLA

Binder	IC50 [nM]
CPSGVKPDLSI (analog peptide) [Her2/neu.600.I11]	138

Biological target: HLA-B*5301 (human)
Assay: competition with 125I probe peptide, purified HLA

Binder	IC50 [nM]
CPSGVKPDLSI (analog peptide) [Her2/neu.600.I11]	344

Biological target: T3, HLA-A*0201 (human)
T3 construct: Purified HLA class I molecule (MHC, no peptide specified); also called HLA-A2.1
Assay: competition with 125I-labelled probe peptide for purified HLA-A*0201, gel filtration

Binder	relative binding ratio
LLALLPPGAA (Synthetic peptide) [HER2/neu peptide, position 12, 10 amino acids]	0.0006 ratio (IC50 of standard peptide / IC50 of test peptide)
LLGICLTSTV (Synthetic peptide) [HER2/neu peptide, position 785, 10 amino acids]	0.049 ratio (IC50 of standard peptide / IC50 of test peptide)
LLLALLPPGA (Synthetic peptide) [HER2/neu peptide, position 11, 10 amino acids]	0.0054 ratio (IC50 of standard peptide / IC50 of test peptide)
LAVLDNGDPL (Synthetic peptide) [HER2/neu peptide, position 114, 10 amino acids]	0.0002 ratio (IC50 of standard peptide / IC50 of test peptide)
LLPPGAAST (Synthetic peptide) [HER2/neu peptide, position 15, 9 amino acids]	0.0007 ratio (IC50 of standard peptide / IC50 of test peptide)
KITDFGLARL (Synthetic peptide) [HER2/neu peptide, position 860, 10 amino acids]	0.002 ratio (IC50 of standard peptide / IC50 of test peptide)
B2	0.0002 ratio (IC50 of standard peptide / IC50 of test peptide)
LLNWCMQIA (Synthetic peptide) [HER2/neu peptide, position 822, 9 amino acids]	0.0046 ratio (IC50 of standard peptide / IC50 of test peptide)
KIRKYTMRRL (Synthetic peptide) [HER2/neu peptide, position 681, 10 amino acids]	0.0001 ratio (IC50 of standard peptide / IC50 of test peptide)
LAALCRWGLL (Synthetic peptide) [HER2/neu peptide, position 3, 10 amino acids]	0.0022 ratio (IC50 of standard peptide / IC50 of test peptide)
ILLVVVLGV (Synthetic peptide) [HER2/neu peptide, position 661, 9 amino acids]	0.002 ratio (IC50 of standard peptide / IC50 of test peptide)
LLALLPPGA (Synthetic peptide) [HER2/neu peptide, position 12, 9 amino acids]	0.0008 ratio (IC50 of standard peptide / IC50 of test peptide)
ILKETELRKV (Synthetic peptide) [HER2/neu peptide, position 714, 10 amino acids]	0.0001 ratio (IC50 of standard peptide / IC50 of test peptide)
LIAHNQVRQV (Synthetic peptide) [HER2/neu peptide, position 85, 10 amino acids]	0.0001 ratio (IC50 of standard peptide / IC50 of test peptide)
LLEDDDMGDL (Synthetic peptide) [HER2/neu peptide, position 1008, 10 amino acids]	0.0001 ratio (IC50 of standard peptide / IC50 of test peptide)
LLVVVLGVV (Synthetic peptide) [HER2/neu peptide, position 662, 9 amino acids]	0.0001 ratio (IC50 of standard peptide / IC50 of test peptide)
KIPVAIKVL (Synthetic peptide) [HER2/neu peptide, position 747, 9 amino acids]	0.0002 ratio (IC50 of standard peptide / IC50 of test peptide)
